The values that follow come from patent US20090042248.

One data set addresses T1, C1-inhibitor, P05155.
T1 chain: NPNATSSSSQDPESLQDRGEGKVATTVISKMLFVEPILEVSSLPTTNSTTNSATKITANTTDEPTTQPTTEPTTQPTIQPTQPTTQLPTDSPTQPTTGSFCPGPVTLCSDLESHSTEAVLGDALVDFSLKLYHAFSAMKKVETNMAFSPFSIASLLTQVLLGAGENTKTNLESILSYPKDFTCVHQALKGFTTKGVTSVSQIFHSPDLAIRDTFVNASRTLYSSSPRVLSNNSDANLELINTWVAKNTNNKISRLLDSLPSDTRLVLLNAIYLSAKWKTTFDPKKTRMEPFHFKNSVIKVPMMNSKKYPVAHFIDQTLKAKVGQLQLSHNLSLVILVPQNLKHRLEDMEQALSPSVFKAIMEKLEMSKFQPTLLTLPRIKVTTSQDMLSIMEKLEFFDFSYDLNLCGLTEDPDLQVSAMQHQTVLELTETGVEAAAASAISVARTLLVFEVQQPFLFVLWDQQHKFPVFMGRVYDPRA
Description: SDS-stable complex formation of 125I-labelled MASP fragment with C1-inhibitor, reducing SDS-PAGE, autoradiography and densitometry.

Data set [1] has as its target T2, alpha-2-macroglobulin, P01023.
T2 chain: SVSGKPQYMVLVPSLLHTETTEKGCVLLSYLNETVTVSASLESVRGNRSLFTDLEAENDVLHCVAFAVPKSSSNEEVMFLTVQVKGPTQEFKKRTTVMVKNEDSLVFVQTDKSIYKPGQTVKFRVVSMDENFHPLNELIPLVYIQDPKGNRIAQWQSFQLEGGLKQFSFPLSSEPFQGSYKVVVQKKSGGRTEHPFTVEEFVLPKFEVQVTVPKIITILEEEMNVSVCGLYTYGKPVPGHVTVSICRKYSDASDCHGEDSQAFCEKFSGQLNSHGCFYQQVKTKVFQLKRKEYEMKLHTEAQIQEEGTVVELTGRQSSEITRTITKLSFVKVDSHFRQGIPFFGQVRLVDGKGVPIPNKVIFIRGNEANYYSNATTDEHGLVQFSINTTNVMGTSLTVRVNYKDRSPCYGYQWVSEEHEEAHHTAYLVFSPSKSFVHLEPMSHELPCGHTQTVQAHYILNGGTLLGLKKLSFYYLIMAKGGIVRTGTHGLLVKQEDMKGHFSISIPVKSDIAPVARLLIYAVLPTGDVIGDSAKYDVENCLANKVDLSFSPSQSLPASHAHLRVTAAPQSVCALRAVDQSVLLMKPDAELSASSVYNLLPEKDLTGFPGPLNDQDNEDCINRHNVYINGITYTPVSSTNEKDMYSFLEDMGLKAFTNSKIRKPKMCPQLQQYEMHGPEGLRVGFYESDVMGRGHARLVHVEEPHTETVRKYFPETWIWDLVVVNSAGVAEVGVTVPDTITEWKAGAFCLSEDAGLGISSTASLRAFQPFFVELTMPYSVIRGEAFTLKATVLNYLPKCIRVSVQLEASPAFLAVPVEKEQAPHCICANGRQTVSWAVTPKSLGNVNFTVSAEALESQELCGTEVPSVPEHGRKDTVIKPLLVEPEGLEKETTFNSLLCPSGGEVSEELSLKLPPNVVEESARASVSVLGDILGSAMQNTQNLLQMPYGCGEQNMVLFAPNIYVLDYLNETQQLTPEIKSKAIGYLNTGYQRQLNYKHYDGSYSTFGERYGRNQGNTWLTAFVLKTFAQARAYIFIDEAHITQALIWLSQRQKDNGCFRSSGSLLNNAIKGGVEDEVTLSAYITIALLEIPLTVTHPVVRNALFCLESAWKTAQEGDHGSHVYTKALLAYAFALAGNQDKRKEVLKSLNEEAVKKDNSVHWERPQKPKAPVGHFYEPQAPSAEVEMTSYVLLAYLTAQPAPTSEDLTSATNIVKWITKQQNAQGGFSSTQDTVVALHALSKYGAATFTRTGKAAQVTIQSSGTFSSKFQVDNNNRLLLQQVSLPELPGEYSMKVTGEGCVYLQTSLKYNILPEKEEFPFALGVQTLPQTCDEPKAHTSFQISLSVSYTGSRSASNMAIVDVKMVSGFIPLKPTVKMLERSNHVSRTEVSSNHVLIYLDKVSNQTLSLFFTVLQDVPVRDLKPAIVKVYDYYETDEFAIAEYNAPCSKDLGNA

Data set [2] addresses T3, P1 Arg oligopeptide of the competing oligopeptide substrate library.
T3 chain: HAAPRSANIQIAI

Data set [3] addresses 'live' C3 (C3 with an intact thiol ester bond), P01024.
Data set [4] deals with T4, P1 Lys oligopeptide of the competing oligopeptide substrate library.
T4 chain: HAAPKSANIQIAI

Another data set addresses T5, Human C2, P06681.
T5 chain: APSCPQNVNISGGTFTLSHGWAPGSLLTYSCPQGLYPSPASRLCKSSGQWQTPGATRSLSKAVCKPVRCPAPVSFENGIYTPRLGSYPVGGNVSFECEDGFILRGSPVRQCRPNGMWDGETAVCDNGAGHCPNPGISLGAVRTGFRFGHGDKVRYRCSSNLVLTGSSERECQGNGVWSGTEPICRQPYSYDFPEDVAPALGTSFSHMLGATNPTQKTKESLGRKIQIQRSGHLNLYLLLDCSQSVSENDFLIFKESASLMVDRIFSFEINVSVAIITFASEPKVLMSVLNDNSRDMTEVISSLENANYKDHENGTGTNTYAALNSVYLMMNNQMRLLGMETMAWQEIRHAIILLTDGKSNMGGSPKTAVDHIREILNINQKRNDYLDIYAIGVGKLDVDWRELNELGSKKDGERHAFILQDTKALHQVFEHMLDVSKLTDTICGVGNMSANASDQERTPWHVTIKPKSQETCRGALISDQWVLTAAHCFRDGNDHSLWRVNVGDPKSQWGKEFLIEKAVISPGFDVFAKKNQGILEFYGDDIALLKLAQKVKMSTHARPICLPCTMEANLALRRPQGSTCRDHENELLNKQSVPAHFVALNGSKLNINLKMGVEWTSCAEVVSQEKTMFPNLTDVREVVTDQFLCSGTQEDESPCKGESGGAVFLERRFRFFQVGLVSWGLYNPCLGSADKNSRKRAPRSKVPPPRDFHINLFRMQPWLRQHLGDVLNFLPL

The target of another data set is T6, Proenzyme C1s, P09871.
T6 chain: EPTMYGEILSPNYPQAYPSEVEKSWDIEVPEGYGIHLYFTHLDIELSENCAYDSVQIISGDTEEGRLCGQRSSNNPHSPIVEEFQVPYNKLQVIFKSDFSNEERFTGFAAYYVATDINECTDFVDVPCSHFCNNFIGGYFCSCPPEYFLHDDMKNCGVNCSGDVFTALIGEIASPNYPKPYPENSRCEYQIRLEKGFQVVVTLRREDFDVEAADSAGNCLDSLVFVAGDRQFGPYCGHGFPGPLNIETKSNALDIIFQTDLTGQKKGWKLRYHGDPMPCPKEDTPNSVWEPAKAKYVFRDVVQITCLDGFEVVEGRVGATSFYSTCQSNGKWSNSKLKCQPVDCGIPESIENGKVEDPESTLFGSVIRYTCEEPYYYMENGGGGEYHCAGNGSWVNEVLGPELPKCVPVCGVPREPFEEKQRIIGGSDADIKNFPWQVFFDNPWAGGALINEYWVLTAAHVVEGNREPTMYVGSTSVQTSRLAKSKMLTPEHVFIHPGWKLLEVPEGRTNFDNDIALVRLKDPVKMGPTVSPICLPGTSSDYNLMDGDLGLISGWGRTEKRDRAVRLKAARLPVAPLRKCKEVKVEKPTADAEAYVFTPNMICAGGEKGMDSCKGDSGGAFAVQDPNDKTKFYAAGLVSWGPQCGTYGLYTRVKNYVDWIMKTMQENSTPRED

Data set [5] addresses T7, C1r CCP2-SP S654A, P00736.
T7 chain: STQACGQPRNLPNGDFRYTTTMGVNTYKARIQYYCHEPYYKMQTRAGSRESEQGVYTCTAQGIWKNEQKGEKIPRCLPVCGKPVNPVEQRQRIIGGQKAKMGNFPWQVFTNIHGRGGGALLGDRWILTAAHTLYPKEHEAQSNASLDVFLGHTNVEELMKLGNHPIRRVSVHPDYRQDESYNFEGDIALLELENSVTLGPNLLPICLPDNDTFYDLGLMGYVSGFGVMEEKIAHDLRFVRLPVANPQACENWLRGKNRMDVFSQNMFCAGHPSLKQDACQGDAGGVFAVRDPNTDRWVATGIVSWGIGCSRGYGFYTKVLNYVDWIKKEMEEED

For a further data set, the target named is T8, C1r SP S654A, P00736.
T8 chain: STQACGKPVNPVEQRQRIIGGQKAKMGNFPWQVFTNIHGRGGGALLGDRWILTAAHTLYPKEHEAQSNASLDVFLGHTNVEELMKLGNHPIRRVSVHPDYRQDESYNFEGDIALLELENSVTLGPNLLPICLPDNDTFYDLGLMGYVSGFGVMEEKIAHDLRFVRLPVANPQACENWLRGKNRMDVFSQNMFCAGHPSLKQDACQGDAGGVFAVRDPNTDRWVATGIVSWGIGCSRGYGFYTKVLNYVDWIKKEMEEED

Data set [6] concerns the target T9, C1r CCP1-CCP2-SP S654A, P00736.
T9 chain: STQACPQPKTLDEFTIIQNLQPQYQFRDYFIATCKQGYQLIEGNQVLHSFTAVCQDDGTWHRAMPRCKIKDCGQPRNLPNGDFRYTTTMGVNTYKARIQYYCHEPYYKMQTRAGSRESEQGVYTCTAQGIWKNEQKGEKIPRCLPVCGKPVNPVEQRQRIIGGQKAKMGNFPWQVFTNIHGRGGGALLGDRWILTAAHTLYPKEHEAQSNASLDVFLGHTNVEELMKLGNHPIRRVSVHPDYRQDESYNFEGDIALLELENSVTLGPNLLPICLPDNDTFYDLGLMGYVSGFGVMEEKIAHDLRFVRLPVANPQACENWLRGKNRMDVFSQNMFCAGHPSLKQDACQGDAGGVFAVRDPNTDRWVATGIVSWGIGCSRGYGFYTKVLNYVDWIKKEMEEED

Human C4, P0C0L4, sequence (P0C0L4 whole entry, looked up): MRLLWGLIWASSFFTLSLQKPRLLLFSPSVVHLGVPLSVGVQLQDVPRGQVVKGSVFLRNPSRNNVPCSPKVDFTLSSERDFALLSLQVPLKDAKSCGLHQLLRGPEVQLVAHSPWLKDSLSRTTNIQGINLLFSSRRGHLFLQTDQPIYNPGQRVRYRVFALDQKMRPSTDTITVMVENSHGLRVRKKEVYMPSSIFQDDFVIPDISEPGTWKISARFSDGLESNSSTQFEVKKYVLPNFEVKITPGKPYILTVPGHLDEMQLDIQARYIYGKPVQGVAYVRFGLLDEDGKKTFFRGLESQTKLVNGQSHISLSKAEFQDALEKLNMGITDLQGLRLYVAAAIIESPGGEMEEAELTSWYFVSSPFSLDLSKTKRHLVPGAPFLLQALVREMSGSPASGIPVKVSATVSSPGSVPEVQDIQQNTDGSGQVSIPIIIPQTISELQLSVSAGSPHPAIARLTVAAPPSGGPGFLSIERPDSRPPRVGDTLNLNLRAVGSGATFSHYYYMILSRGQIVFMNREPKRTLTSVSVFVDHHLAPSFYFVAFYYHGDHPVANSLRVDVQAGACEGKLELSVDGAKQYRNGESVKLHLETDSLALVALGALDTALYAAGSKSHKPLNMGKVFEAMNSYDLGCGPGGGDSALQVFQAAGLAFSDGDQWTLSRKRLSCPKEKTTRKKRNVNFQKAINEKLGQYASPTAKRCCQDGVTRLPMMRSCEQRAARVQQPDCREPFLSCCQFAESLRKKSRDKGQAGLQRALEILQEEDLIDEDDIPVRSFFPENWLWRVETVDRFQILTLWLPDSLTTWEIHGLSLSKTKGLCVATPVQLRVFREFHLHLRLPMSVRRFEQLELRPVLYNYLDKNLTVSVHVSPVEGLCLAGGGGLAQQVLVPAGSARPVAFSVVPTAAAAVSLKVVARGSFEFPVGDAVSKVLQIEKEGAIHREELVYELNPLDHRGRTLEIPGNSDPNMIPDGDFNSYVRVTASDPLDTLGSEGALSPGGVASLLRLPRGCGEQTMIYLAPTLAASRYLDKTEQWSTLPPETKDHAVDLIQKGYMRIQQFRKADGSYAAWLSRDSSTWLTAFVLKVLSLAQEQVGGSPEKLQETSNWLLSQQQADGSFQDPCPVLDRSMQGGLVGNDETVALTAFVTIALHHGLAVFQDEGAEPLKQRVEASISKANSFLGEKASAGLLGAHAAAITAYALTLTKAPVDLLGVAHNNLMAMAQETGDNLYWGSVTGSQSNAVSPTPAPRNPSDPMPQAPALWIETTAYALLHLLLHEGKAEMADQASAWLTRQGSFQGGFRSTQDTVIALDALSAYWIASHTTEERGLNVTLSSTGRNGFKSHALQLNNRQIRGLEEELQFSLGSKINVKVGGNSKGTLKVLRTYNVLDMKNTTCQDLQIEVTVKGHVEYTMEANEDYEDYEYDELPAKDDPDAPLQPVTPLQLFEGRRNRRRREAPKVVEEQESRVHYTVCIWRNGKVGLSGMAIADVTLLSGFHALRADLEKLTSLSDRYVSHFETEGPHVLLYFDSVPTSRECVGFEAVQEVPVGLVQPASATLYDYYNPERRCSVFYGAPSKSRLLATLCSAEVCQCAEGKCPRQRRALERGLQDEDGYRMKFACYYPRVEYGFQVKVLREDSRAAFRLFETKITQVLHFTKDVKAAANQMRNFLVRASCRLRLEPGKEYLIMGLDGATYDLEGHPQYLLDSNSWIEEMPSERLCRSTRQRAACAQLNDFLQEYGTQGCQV
'dead' C3(NH3), P01024, sequence (P01024 whole entry, looked up): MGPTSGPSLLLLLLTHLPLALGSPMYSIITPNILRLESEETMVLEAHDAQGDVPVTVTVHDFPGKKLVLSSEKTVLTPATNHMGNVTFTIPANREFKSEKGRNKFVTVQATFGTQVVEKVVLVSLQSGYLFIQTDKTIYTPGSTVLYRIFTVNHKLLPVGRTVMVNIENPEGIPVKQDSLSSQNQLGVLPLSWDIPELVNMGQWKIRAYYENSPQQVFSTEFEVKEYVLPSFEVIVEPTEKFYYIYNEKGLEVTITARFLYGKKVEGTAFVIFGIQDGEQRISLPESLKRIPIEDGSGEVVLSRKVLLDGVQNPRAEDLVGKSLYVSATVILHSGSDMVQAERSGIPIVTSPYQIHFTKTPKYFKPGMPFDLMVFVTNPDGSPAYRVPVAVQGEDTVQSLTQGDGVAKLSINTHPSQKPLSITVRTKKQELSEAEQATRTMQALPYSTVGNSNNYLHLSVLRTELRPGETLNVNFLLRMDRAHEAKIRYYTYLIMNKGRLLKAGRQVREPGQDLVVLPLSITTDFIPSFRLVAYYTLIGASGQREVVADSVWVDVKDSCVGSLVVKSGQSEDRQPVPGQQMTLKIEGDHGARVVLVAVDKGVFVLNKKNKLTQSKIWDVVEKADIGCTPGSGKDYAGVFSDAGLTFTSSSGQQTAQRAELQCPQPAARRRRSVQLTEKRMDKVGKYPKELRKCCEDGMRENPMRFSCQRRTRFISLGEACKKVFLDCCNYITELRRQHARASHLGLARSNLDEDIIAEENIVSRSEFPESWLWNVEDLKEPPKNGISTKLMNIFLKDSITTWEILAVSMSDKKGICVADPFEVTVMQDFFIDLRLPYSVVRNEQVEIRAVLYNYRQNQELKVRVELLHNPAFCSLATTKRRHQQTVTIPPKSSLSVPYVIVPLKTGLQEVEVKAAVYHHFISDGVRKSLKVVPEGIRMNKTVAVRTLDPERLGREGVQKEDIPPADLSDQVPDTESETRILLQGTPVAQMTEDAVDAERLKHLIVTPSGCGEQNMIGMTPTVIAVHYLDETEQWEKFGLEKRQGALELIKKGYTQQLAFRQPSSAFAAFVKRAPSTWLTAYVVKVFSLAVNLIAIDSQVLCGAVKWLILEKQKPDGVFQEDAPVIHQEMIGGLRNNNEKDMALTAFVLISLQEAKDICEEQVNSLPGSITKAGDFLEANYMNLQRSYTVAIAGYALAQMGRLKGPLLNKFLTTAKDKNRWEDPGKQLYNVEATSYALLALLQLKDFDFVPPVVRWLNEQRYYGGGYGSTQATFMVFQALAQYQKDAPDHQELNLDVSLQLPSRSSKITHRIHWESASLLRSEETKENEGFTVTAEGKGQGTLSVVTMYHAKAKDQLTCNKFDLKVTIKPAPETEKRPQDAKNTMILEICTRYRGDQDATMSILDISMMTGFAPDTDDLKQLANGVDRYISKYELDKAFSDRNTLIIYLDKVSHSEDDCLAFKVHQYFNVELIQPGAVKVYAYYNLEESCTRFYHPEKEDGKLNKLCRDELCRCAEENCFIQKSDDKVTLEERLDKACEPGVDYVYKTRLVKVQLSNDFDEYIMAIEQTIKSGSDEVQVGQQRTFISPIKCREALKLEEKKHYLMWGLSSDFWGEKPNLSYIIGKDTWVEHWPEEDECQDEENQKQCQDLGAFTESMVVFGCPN
'live' C3 (C3 with an intact thiol ester bond), P01024, sequence (P01024 whole entry, looked up): as above

B1: MASP-2 CCP1-CCP2-SP fragment (protein)
chain 1: IHYTSTAQPCPYPMAPPNGHVSPVQAKYILKDSFSIFCETGYELLQGHLPLKSFTAVCQKDGSWDRPMPACSIVDCGPPDDLPSGRVEYITGPGVTTYKAVIQYSCEETFYTMKVNDGKYVCEADGFWTSSKGEKSLPVCEPVCGLSARTTGGR
chain 2: IYGGQKAKPGDFPWQVLILGGTTAAGALLYDNWVLTAAHAVYEQKHDASALDIRMGTLKRLSPHYTQAWSEAVFIHEGYTHDAGFDNDIALIKLNNKVVINSNITPICLPRKEAESFMRTDDIGTASGWGLTQRGFLARNLMYVDIPIVDHQKCTAAYEKPPYPRGSVTANMLCAGLESGGKDSCRGDSGGALVFLDSETERWFVGGIVSWGSMNCGEAGQYGVYTKVINYIPWIENIISDF
As to B1, the kobs (pseudo-first order rate of reaction at [C1-inh] = 350 nM) with C1-inhibitor, P05155 amounted to 0.0078 s⁻¹. In data set [1], the “molar excess needed to abolish cleavage of complement substrates” value is listed as “or with a large molar excess (40 fold) of alpha-2-macroglobulin”. Moreover, in [2], the “cleavage in the competing oligopeptide substrate library” value was “both enzymes cleave oligopeptides that contain either Arg or Lys at their P1 positions” and the “digestion of the P1 Arg oligopeptide at 15 min” value is recorded as “MASP-2 cleaved less than 20% of the substrate”. Besides, in the data set with Human C4, P0C0L4, the KM, C4 cleavage is 1.6 µM; the kcat, C4 cleavage came out at 0.9 s⁻¹; the kcat/KM, C4 cleavage was found to be 550000 M⁻¹ s⁻¹. In data set [3], the kcat/KM, cleavage of live C3 turned out to be 350 M⁻¹ s⁻¹. The kcat/KM, cleavage of C3(NH3) with 'dead' C3(NH3), P01024 was found to be 3300 M⁻¹ s⁻¹. In addition, the “cleavage in the competing oligopeptide substrate library” value in [4] was “both enzymes cleave oligopeptides that contain either Arg or Lys at their P1 positions”. Moreover, in the data set with Human C2, P06681, the KM, C2 cleavage came out at 4 µM; the kcat, C2 cleavage was 1.9 s⁻¹; the kcat/KM, C2 cleavage came to 500000 M⁻¹ s⁻¹.

B2: C1r CCP1-CCP2-SP fragment (wild-type) (protein)
chain 1: STQACPQPKTLDEFTIIQNLQPQYQFRDYFIATCKQGYQLIEGNQVLHSFTAVCQDDGTWHRAMPRCKIKDCGQPRNLPNGDFRYTTTMGVNTYKARIQYYCHEPYYKMQTRAGSRESEQGVYTCTAQGIWKNEQKGEKIPRCLPVCGKPVNPVEQRQR
chain 2: IIGGQKAKMGNFPWQVFTNIHGRGGGALLGDRWILTAAHTLYPKEHEAQSNASLDVFLGHTNVEELMKLGNHPIRRVSVHPDYRQDESYNFEGDIALLELENSVTLGPNLLPICLPDNDTFYDLGLMGYVSGFGVMEEKIAHDLRFVRLPVANPQACENWLRGKNRMDVFSQNMFCAGHPSLKQDACQGDSGGVFAVRDPNTDRWVATGIVSWGIGCSRGYGFYTKVLNYVDWIKKEMEEED
For B2, the kcat/KM, C1s cleavage in the data set with Proenzyme C1s, P09871 is 58000 s^-1M^-1. Also, the kcat/KM, cleavage of S654A zymogen in [5] came to 15900 s^-1M^-1; with C1r SP S654A, P00736, 45000 s^-1M^-1; in [6], 6200 s^-1M^-1. Further, in [3], the “cleavage of 'live' C3 (control)” value is “we observed no cleavages of either 'live' or 'dead' C3”. In the data set with 'dead' C3(NH3), P01024, the “cleavage of 'dead' C3 (control)” value is listed as “we observed no cleavages of either 'live' or 'dead' C3”.
